Assay results published in the RNAGym collection of RNA variant scans (doi:10.1021/acssynbio.7b00057).

B1: Pistol ribozyme (parent)
chain: GGGUCGUUGUUCCAUAAUCGCGUGGAUAUGGCACGCAAGUUUCUACCGGGCACCGUAAAUGUCCGACUGGAGCCGUUCGGGCGGCUAUAAACAGACCUCAGGCCCGAAGCGUGGCGGCACCUGCCGCCGGUGGUAAAAAAGAUCGGAAGAGCACACGUCU

Variants of: B1
Assay: aptazyme ON/OFF ratio, guanine; higher = stronger switching; co-transcriptional cleavage with and without guanine

| Variant | aptazyme ON/OFF ratio |
| --- | --- |
| GGGUCGGGCGAAGAUAAUCGCGUGGAUAUGGCACGCAAGUUUCUACCGGGCACCGUAAAUGUCCGACUGGAGCCGUUCGGGCGGCUAUAAACAGACCUCAGGCCCGAAGCGUGGCGGCACCUGCCGCCGGUGGUAAAAAAGAUCGGAAGAGCACACGUCU | 1.12 |
| GGGUCGGGCGAAAAUAAUCGCGUGGAUAUGGCACGCAAGUUUCUACCGGGCACCGUAAAUGUCCGACUGGAGCCGUUCGGGCGGCUAUAAACAGACCUCAGGCCCGAAGCGUGGCGGCACCUGCCGCCGGUGGUAAAAAAGAUCGGAAGAGCACACGUCU | 1.14 |
| GGGUCGGGCGAAUAUAAUCGCGUGGAUAUGGCACGCAAGUUUCUACCGGGCACCGUAAAUGUCCGACUGGAGCCGUUCGGGCGGCUAUAAACAGACCUCAGGCCCGAAGCGUGGCGGCACCUGCCGCCGGUGGUAAAAAAGAUCGGAAGAGCACACGUCU | 1.11 |
| GGGUCGGGCGAGUAUAAUCGCGUGGAUAUGGCACGCAAGUUUCUACCGGGCACCGUAAAUGUCCGACUGGAGCCGUUCGGGCGGCUAUAAACAGACCUCAGGCCCGAAGCGUGGCGGCACCUGCCGCCGGUGGUAAAAAAGAUCGGAAGAGCACACGUCU | 1.16 |
| GGGUCGGGCGAGGAUAAUCGCGUGGAUAUGGCACGCAAGUUUCUACCGGGCACCGUAAAUGUCCGACUGGAGCCGUUCGGGCGGCUAUAAACAGACCUCAGGCCCGAAGCGUGGCGGCACCUGCCGCCGGUGGUAAAAAAGAUCGGAAGAGCACACGUCU | 1.12 |
| GGGUCGGGCGAGAAUAAUCGCGUGGAUAUGGCACGCAAGUUUCUACCGGGCACCGUAAAUGUCCGACUGGAGCCGUUCGGGCGGCUAUAAACAGACCUCAGGCCCGAAGCGUGGCGGCACCUGCCGCCGGUGGUAAAAAAGAUCGGAAGAGCACACGUCU | 1.06 |
| GGGUCGGGCGUCAAUAAUCGCGUGGAUAUGGCACGCAAGUUUCUACCGGGCACCGUAAAUGUCCGACUGGAGCCGUUCGGGCGGCUAUAAACAGACCUCAGGCCCGAAGCGUGGCGGCACCUGCCGCCGGUGGUAAAAAAGAUCGGAAGAGCACACGUCU | 1.31 |
| GGGUCGGGCGUCGAUAAUCGCGUGGAUAUGGCACGCAAGUUUCUACCGGGCACCGUAAAUGUCCGACUGGAGCCGUUCGGGCGGCUAUAAACAGACCUCAGGCCCGAAGCGUGGCGGCACCUGCCGCCGGUGGUAAAAAAGAUCGGAAGAGCACACGUCU | 1.28 |
| GGGUCGGGCGUCUAUAAUCGCGUGGAUAUGGCACGCAAGUUUCUACCGGGCACCGUAAAUGUCCGACUGGAGCCGUUCGGGCGGCUAUAAACAGACCUCAGGCCCGAAGCGUGGCGGCACCUGCCGCCGGUGGUAAAAAAGAUCGGAAGAGCACACGUCU | 1.26 |
| GGGUCGGGCGCGCAUAAUCGCGUGGAUAUGGCACGCAAGUUUCUACCGGGCACCGUAAAUGUCCGACUGGAGCCGUUCGGGCGGCUAUAAACAGACCUCAGGCCCGAAGCGUGGCGGCACCUGCCGCCGGUGGUAAAAAAGAUCGGAAGAGCACACGUCU | 1.18 |
| GGGUCGGGCGCACAUAAUCGCGUGGAUAUGGCACGCAAGUUUCUACCGGGCACCGUAAAUGUCCGACUGGAGCCGUUCGGGCGGCUAUAAACAGACCUCAGGCCCGAAGCGUGGCGGCACCUGCCGCCGGUGGUAAAAAAGAUCGGAAGAGCACACGUCU | 1.25 |
| GGGUCGGGCGAUCAUAAUCGCGUGGAUAUGGCACGCAAGUUUCUACCGGGCACCGUAAAUGUCCGACUGGAGCCGUUCGGGCGGCUAUAAACAGACCUCAGGCCCGAAGCGUGGCGGCACCUGCCGCCGGUGGUAAAAAAGAUCGGAAGAGCACACGUCU | 1.23 |
| GGGUCGGGCGAGCAUAAUCGCGUGGAUAUGGCACGCAAGUUUCUACCGGGCACCGUAAAUGUCCGACUGGAGCCGUUCGGGCGGCUAUAAACAGACCUCAGGCCCGAAGCGUGGCGGCACCUGCCGCCGGUGGUAAAAAAGAUCGGAAGAGCACACGUCU | 1.16 |
| GGGUCGGGCGAACAUAAUCGCGUGGAUAUGGCACGCAAGUUUCUACCGGGCACCGUAAAUGUCCGACUGGAGCCGUUCGGGCGGCUAUAAACAGACCUCAGGCCCGAAGCGUGGCGGCACCUGCCGCCGGUGGUAAAAAAGAUCGGAAGAGCACACGUCU | 1.17 |
| GGGUCGGGCGAUGAUAAUCGCGUGGAUAUGGCACGCAAGUUUCUACCGGGCACCGUAAAUGUCCGACUGGAGCCGUUCGGGCGGCUAUAAACAGACCUCAGGCCCGAAGCGUGGCGGCACCUGCCGCCGGUGGUAAAAAAGAUCGGAAGAGCACACGUCU | 1.1 |
| GGGUCGGGCGAUUAUAAUCGCGUGGAUAUGGCACGCAAGUUUCUACCGGGCACCGUAAAUGUCCGACUGGAGCCGUUCGGGCGGCUAUAAACAGACCUCAGGCCCGAAGCGUGGCGGCACCUGCCGCCGGUGGUAAAAAAGAUCGGAAGAGCACACGUCU | 1.1 |
| GGGUCGGGCGAUAAUAAUCGCGUGGAUAUGGCACGCAAGUUUCUACCGGGCACCGUAAAUGUCCGACUGGAGCCGUUCGGGCGGCUAUAAACAGACCUCAGGCCCGAAGCGUGGCGGCACCUGCCGCCGGUGGUAAAAAAGAUCGGAAGAGCACACGUCU | 1.13 |
| GGGUCGGGCGUUCAUAAUCGCGUGGAUAUGGCACGCAAGUUUCUACCGGGCACCGUAAAUGUCCGACUGGAGCCGUUCGGGCGGCUAUAAACAGACCUCAGGCCCGAAGCGUGGCGGCACCUGCCGCCGGUGGUAAAAAAGAUCGGAAGAGCACACGUCU | 1.17 |

| Variant | aptazyme ON/OFF ratio |
| --- | --- |
| GGGUCGGGCGUGCAUAAUCGCGUGGAUAUGGCACGCAAGUUUCUACCGGGCACCGUAAAUGUCCGACUGGAGCCGUUCGGGCGGCUAUAAACAGACCUCAGGCCCGAAGCGUGGCGGCACCUGCCGCCGGUGGUAAAAAAGAUCGGAAGAGCACACGUCU | 1.21 |
| GGGUCGGGCGACCAUAAUCGCGUGGAUAUGGCACGCAAGUUUCUACCGGGCACCGUAAAUGUCCGACUGGAGCCGUUCGGGCGGCUAUAAACAGACCUCAGGCCCGAAGCGUGGCGGCACCUGCCGCCGGUGGUAAAAAAGAUCGGAAGAGCACACGUCU | 1.32 |
| GGGUCGGGCGCCCAUAAUCGCGUGGAUAUGGCACGCAAGUUUCUACCGGGCACCGUAAAUGUCCGACUGGAGCCGUUCGGGCGGCUAUAAACAGACCUCAGGCCCGAAGCGUGGCGGCACCUGCCGCCGGUGGUAAAAAAGAUCGGAAGAGCACACGUCU | 1.06 |
| GGGUCGGGCGUGGAUAAUCGCGUGGAUAUGGCACGCAAGUUUCUACCGGGCACCGUAAAUGUCCGACUGGAGCCGUUCGGGCGGCUAUAAACAGACCUCAGGCCCGAAGCGUGGCGGCACCUGCCGCCGGUGGUAAAAAAGAUCGGAAGAGCACACGUCU | 1.12 |
| GGGUCGGGCGUGUAUAAUCGCGUGGAUAUGGCACGCAAGUUUCUACCGGGCACCGUAAAUGUCCGACUGGAGCCGUUCGGGCGGCUAUAAACAGACCUCAGGCCCGAAGCGUGGCGGCACCUGCCGCCGGUGGUAAAAAAGAUCGGAAGAGCACACGUCU | 1.2 |
| GGGUCGGGCGUGAAUAAUCGCGUGGAUAUGGCACGCAAGUUUCUACCGGGCACCGUAAAUGUCCGACUGGAGCCGUUCGGGCGGCUAUAAACAGACCUCAGGCCCGAAGCGUGGCGGCACCUGCCGCCGGUGGUAAAAAAGAUCGGAAGAGCACACGUCU | 1.11 |
| GGGUCGGGCGUAUAUAAUCGCGUGGAUAUGGCACGCAAGUUUCUACCGGGCACCGUAAAUGUCCGACUGGAGCCGUUCGGGCGGCUAUAAACAGACCUCAGGCCCGAAGCGUGGCGGCACCUGCCGCCGGUGGUAAAAAAGAUCGGAAGAGCACACGUCU | 1.14 |
| GGGUCGGGCGUAGAUAAUCGCGUGGAUAUGGCACGCAAGUUUCUACCGGGCACCGUAAAUGUCCGACUGGAGCCGUUCGGGCGGCUAUAAACAGACCUCAGGCCCGAAGCGUGGCGGCACCUGCCGCCGGUGGUAAAAAAGAUCGGAAGAGCACACGUCU | 1.06 |
| GGGUCGGGCGUAAAUAAUCGCGUGGAUAUGGCACGCAAGUUUCUACCGGGCACCGUAAAUGUCCGACUGGAGCCGUUCGGGCGGCUAUAAACAGACCUCAGGCCCGAAGCGUGGCGGCACCUGCCGCCGGUGGUAAAAAAGAUCGGAAGAGCACACGUCU | 1.07 |
| GGGUCGGGCGUUUAUAAUCGCGUGGAUAUGGCACGCAAGUUUCUACCGGGCACCGUAAAUGUCCGACUGGAGCCGUUCGGGCGGCUAUAAACAGACCUCAGGCCCGAAGCGUGGCGGCACCUGCCGCCGGUGGUAAAAAAGAUCGGAAGAGCACACGUCU | 1.09 |
| GGGUCGGGCGUUAAUAAUCGCGUGGAUAUGGCACGCAAGUUUCUACCGGGCACCGUAAAUGUCCGACUGGAGCCGUUCGGGCGGCUAUAAACAGACCUCAGGCCCGAAGCGUGGCGGCACCUGCCGCCGGUGGUAAAAAAGAUCGGAAGAGCACACGUCU | 1.06 |
| GGGUCGGGCGUUGAUAAUCGCGUGGAUAUGGCACGCAAGUUUCUACCGGGCACCGUAAAUGUCCGACUGGAGCCGUUCGGGCGGCUAUAAACAGACCUCAGGCCCGAAGCGUGGCGGCACCUGCCGCCGGUGGUAAAAAAGAUCGGAAGAGCACACGUCU | 1.05 |
| GGGUCGGGCGACUAUAAUCGCGUGGAUAUGGCACGCAAGUUUCUACCGGGCACCGUAAAUGUCCGACUGGAGCCGUUCGGGCGGCUAUAAACAGACCUCAGGCCCGAAGCGUGGCGGCACCUGCCGCCGGUGGUAAAAAAGAUCGGAAGAGCACACGUCU | 1.12 |
| GGGUCGGGCGACAAUAAUCGCGUGGAUAUGGCACGCAAGUUUCUACCGGGCACCGUAAAUGUCCGACUGGAGCCGUUCGGGCGGCUAUAAACAGACCUCAGGCCCGAAGCGUGGCGGCACCUGCCGCCGGUGGUAAAAAAGAUCGGAAGAGCACACGUCU | 1.1 |
| GGGUCGGGCGACGAUAAUCGCGUGGAUAUGGCACGCAAGUUUCUACCGGGCACCGUAAAUGUCCGACUGGAGCCGUUCGGGCGGCUAUAAACAGACCUCAGGCCCGAAGCGUGGCGGCACCUGCCGCCGGUGGUAAAAAAGAUCGGAAGAGCACACGUCU | 1.05 |
| GGGUCGGGCGCAAAUAAUCGCGUGGAUAUGGCACGCAAGUUUCUACCGGGCACCGUAAAUGUCCGACUGGAGCCGUUCGGGCGGCUAUAAACAGACCUCAGGCCCGAAGCGUGGCGGCACCUGCCGCCGGUGGUAAAAAAGAUCGGAAGAGCACACGUCU | 1.1 |
| GGGUCGGGCGCAGAUAAUCGCGUGGAUAUGGCACGCAAGUUUCUACCGGGCACCGUAAAUGUCCGACUGGAGCCGUUCGGGCGGCUAUAAACAGACCUCAGGCCCGAAGCGUGGCGGCACCUGCCGCCGGUGGUAAAAAAGAUCGGAAGAGCACACGUCU | 1.05 |
| GGGUCGGGCGCAUAUAAUCGCGUGGAUAUGGCACGCAAGUUUCUACCGGGCACCGUAAAUGUCCGACUGGAGCCGUUCGGGCGGCUAUAAACAGACCUCAGGCCCGAAGCGUGGCGGCACCUGCCGCCGGUGGUAAAAAAGAUCGGAAGAGCACACGUCU | 1.12 |
